Assay results: patent US20140341939A1 (NATIONAL UNIVERSITY CORPORATION KOCHI UNIVERSITY, priority 2011, published 2014)
Where no end group is shown, it is not given here. [ ]: non-standard residue; d: D form. The star is where a group is joined. Biotin = O=C1N[C@H]2[C@H](CS[C@H]2CCCCC(=O)*)N1; βAla = NCCC(=O)O

Columns and labels:
HLA-DR molecule = molecular target: T1, HLA-DR molecule (Homo sapiens, UniProt P01903+P01911, A100R/A169T/D86S/F76Y/I96L/K127E/L162R/M171V/N62H/P40V/Q125Y/R42H/S133A/S149N/S66Y/V115G/V209L/W38E); assay: Binding of biotinylated W332 peptide to CH1-DR4 cell; conditions: cultured 5 hr, FITC-streptavidin, flow cytometry (FIG. 29A)
T1 construct: expressed in transfected cells; host or cells: CH1-DR4 (CH1-DRB1*04:05) cells

HLA-DR4 molecule = molecular target: T2, HLA-DR4 molecule (Homo sapiens, UniProt P01903+P01911, A100R/A169T/D86S/F76Y/I96L/K127E/L162R/M171V/N62H/P40V/Q125Y/R42H/S133A/S149N/S66Y/V115G/V209L/W38E); assay: Peptide binding to HLA-DR4 molecule on CH1-DR4 cells with p-chlorophenol; conditions: PCP added, 37° C. 4 hr, FITC-streptavidin (FIG. 31)
T2 construct: expressed in transfected cells; host or cells: CH1-DRB1*04:05 (CH1-DR4) cells
Method: CH1-DRB1*04:05 cells (CH1-DR4 cells) were suspended in 20% FCS IMDM ([…]) at 2×10^6/ml, so that 50 μl could provide 1×10^5 cells/well in a 96 well U plate. Then, 20 μM bTR174 (PSK^bio[…]^bioPβA: SEQ ID NO: 41) (biotinylation index peptide) was added at 100 μl per well, and IMDM containing 8 mM PCP was further added at 50 μl per well, and finally, CH1-DR4 cells were added at 50 μl (1×10^5/well) and the mixture was incubated at 37° C. for 4 hr. Free peptide was removed by centrifugation, the cells were stained with FITC-streptavidin, and measured by flow cytometer. […] By adding a competitive peptide, which is generated by adding a peptidase resistant sequence to the terminal of an unlabeled peptide, to this experiment system, the binding activity of the unlabeled peptide can be quantitatively measured.

Substance | binding to cell that expresses HLA-DR molecule (HLA-DR molecule) | binding of biotin-labeled peptide to HLA-DR4 molecule (HLA-DR4 molecule)
PSK^bioKRYFKLSHLQMHSRKHK^bioPβA (PSK(Biotin)KRYFKLSHLQMHSRKHK(Biotin)P[βAla]) [PbW332bPβ] | bind to CH1-DR4 cell | –
PSK^bioREFKLSKVWRDQK^bioPβA (PSK(Biotin)REFKLSKVWRDQK(Biotin)P[βAla]) [bTR174, biotinylation index peptide] | – | replaced a peptide endogenously bound to an HLA-DR4 molecule, in a PCP concentration dependent manner
